# The DeepSol protein solubility set
# Assay: soluble on expression in E. coli; label from the status in PepcDB or PDB records
row,Sequence,soluble on expression in E. coli
1,MQERVFHVASPKAKLYSEADQAIRERLKDFPKALRAYEMLVQDPEARSGWNMANYLTMRKLGYNDHGRVHALLTGAASVAILALLSEAGVRLDTVESGAGELEDAYVVVLLSTMLHDLGNQVHRFGHEAFGVVLALPILNRILDKLYPDPEQRTAIRALILHGIYSHDLSPEPLTIEAGITAVADGTDITKGRGRKAFQLGSIDIHSISALAVDEVRILKGEKVPVEIQVTMNNSAGIFQVEETLTKKVLKSPLRPYVTVVAMTDGEGGQDQRIVHRVRLHETEDRFVLD,soluble
2,MQHLDLQVVRKALKWSVGGERVWFCTVLTTYGSAPRAPGSLLAVNASGEWIGSLSGGCVEDDFLERVAAGGFPDPAVIVRYGEGDDPNSNIRLPCGGILDVLVENLAPDCDVQAHLRELESALLGQRRLLREVELGSGARSLRDDSSHGPRAERDGECVRLRVGAAQRLLLAGYSSVAHACAEFGKGLGFEVILCDPREEALRGVVLEGIEIRRELPSLFIADGGCHADTAVVALTHDPKIDDLAMLEAVRTEAFYIGVMGSRATSEKRFERLRRIGGLGDAELARIHAPIGLNLGSKTPAEIALAVLADILRIRNGIPRERL,not soluble
3,MQHPTTKYVKLSFALIFLFNIASASIFSDDVTEATSSPDTTTTAVAIRAKRQCGGMGGCCGGMSGCGCGSMGMCGQTCCPSAPPPCSCGTPGCMQCVQQTVLVPVTTTTCCKCCQPVCTNACTNGGGCSCGCTRGGCSRKRRSLLAIASEEMSKRGDVMV,not soluble
4,MQHYLHIRPAPSDNLPLVDLIEHPDPIFDPKEKDLNETLLRSLLGGHYDPGFMATSPPEDRPGGGGGAAGGAEDLAELDQLLRQRPSGAMPSEIKGLEFSEGLAQGKKQRLSKKLRRKLQMWLWSQTFCPVLYAWNDLGSRFWPRYVKVGSCFSKRSCSVPEGMVCKPSKSVHLTVLRWRCQRRGGQRCGWIPIQYPIISECKCSC,soluble
5,MQINKDELIKMGNHLKEARLSKQLTQEELARLSNISQATIVKYENGLRSISKKNDRILSDVLGAESFIKDMIQRKQQVLIDLEKYQTKNIFSREDLSKKLGIEISLLNKFLNQSRPLSKNAIVKITQLLSNEGKEILMDIKQEDGSFKLPIIDKIAMGKRIQEIRKNRGETLEKFGKNFTRPAGKNVVNRWEKGTNIPDIERLMNVAYLGKVAVPYILYGETFSKMLKKGSRISKFEKLDSFRMGLRLRKIRRDYRLEREDFGKFFSPPITKWSMDKYENGKDIPNTDRIIQYAYIGKVSLNFLIYGVN,not soluble
6,MQIQKSFKGQSPYGKLYLVATPIGNLDDMTFRAIQTLKEVDWIAAEDTRNTGLLLKHFDISTKQISFHEHNAKEKIPDLIGFLKAGQSIAQVSDAGLPSISDPGHDLVKAAIEEEIAVVTVPGASAGISALIASGLAPQPHIFYGFLPRKSGQQKQFFGLKKDYPETQIFYESPHRVADTLENMLEVYGDRSVVLVRELTKIYEEYQRGTISELLESIAETPLKGECLLIVEGASQGVEEKDEEDLFVEIQTRIQQGVKKNQAIKEVAKIYQWNKSQLYAAYHDWEEKQ,not soluble
7,MQKLPHSLFFGPAGCGKTTFARVVAKDFGLDFYEFDGGNFKLEDLRKIIENYKNSLYKPLIFIDEIHRLSKTQQEMLLIPMENYRCIVIGASTENPYFVLSSGIRSRSMLFEFKNLGQKDLELLLERVQQKIAFKIEDNAKEFLLKSFDARAMLNLLEFALVLNEKEITLENLKKLRNGVNSEGVSSKDTHYILASALIKSLRGSDVDAAIYYLARLIDAGESADFIARRLIIFASEDISNADPNALNLAVSTLTAVKNIGYPEARIILSQCAVYLASAPKSNSSYNAINKALDYVKNNPALEIPNYLNNNHPEKKNYLYPHNFGGWVKQNYLSANLKFYESKGIGEEARLLENLSKLKNIKS,soluble
8,MQKVRSDIMTHRGSHYDLGVKTALWLQTTPLLKNRNKEWRKRIPRFDIDVKETYDIFQIYSPQIWEEIIGMQDVLNLPTKQMILNFGHYRFTDLKDSGCTVYKGRDFLVRNYDYHPATYDGRYLLFQPNDGGLSQIGPTSRVTGRMDGMNEYGLVMAYNFMHRKKPANGFVCYMVGRLILENCKNVTEAIKFLKEVPHRSSFSYILMDRHSNYAIVEVTPRSIDVRYEHICTNHFELLTHENRNYTRESKERLNRVINKTTPSTNKDIAFKLFNDPQYEIYSNLFKSWSGTIHTSLYEPNSLIAWMALGQNSHPTSINFSNWLKGKKLNINYFEGEIDTPLTFATYLEHHHHHH,not soluble
9,MQLDTIHKITGTLILKSGLHIGAGDSEMRIGGTDSPVVKDPLTDQPYIPGSSLKGKIRSLLEWRHGLVVATGGAPYSFKHLAQDENNSAGRDVIKLFGGAPDKAEDQLVKNIGPTRLAFWDCPLNGDWKKEAADSRHLLTTEVKSENSINRIAGTAEHPRFIERVIAGARFDFTLTLKVLEGDDLLNTVLLGLRLLELDSLGGSGSRGYGKIKFAELKLDGTDLMEQFHAITPFNQTA,not soluble
10,MQLGISKEQAGTVIGGLAGVAIGSTMGSGNGKIAAALIAGGIGAYVGNRIGHMLDEKDQQALALRTQEVLSQQQTTASAQPVTWKSDHSGATAQIVPGKEYTKTKQVEVKRAPKIQAVPSMKLINEPYVTISDNLNVRAAPNQAGEKVGSLKNHTEFTAVGSTGDWILVGRKGVTVGYVHKNYVEPKAQAVAKRVTPAVNLDELDVAASKETQGFDLDSVQSLPTQTVAAEAACRPVTVSLKSLEHHHHHH,soluble
11,MQLKVPEHQVAGHIAKDGKPGPLVDDKGRFFKPLQGDSRGEIEVKFYESFSSNTEVPEHIHRYFPVYHGTQAVEGSDGAAMMVLENLLAEYTKPSVMDVKMGSRTWYPDASEEYIQKCLKKDTGTTTVSSGFRISGFEVYDHKESSFWKPERKLLRGLDVDGARLTLRKFVSSNSLSDTGSKPDSAFASSVYGGSHGILTQLLELKTWFENQTLYHFNSCSILMVYENESILKGNDDDARPQVKLVDFAHVLDGNGVIDHNFLGGLCSFINFIREILQSPDESADS,soluble
12,MQMDGSKHMGTGAADAPFYLAQGDECDIFTAAYDNNLPVLLKGPTGCGKTRFVAHMAAKLGRPLYTVACHDDLAAADLIGRYLLKGGETVWVDGPLTRAVREGAICYLDEVVEARKDVTVVLHPLTDDRRILPIDRTGEELEAMPGFMLVASYNPGYQNILKTLKPSTRQRFISLEFDFPAPELEARVVSQESGLPLERCKPLIRLAGKLRGLKGQDLEEGVSTRLVVYAATLIAQGMPTERAILAAMVEPLTDDEDIKRGLLDLTTAVFGLEHHHHHH,not soluble
13,MQMISRITTGISMQYGLSNGTITFDDLIPELLHFGTITPTQISAITTDKLTEIVDGINGLQRKLDSSSEQLEEQLMMFASVYEKTKGVVPGSIIPKDDVYKTQLDALKIKWSKVDSFAKGIVIFLNEMESMEGVTSDDDANIKLSDMAPHLPKFKDWTLEEYNVYAQNQHLRNIHISYPSLNLVYKAVAEFFPYKNSLDGSLLPQVQENINKLNTLAEKIKPEAPMISQLHELFLSRSLKKSVNFKIISGLLNGISDIQMIFTDLKNEWVNKTVDGQAYNLGKALNQLKTLGNNAQQVDLSIVPVEEKIFKDVSNLYQKVNSLKDLTVIVRPLIGTVTGIEIPQSAIRIPAIDVIGQLIDKMKLLSSKLAALEILVHLSKTLRSAKNTIKLEKMKNITTAAEGKLELFKKSSDFKDIYKLILPAKKAAQKLKEAPTITETVTKIQTSFGNLTTFVDDLKSFLDDIKFLENIKGIDSLKPVIEVIRDYRDPKLFKKVDLSTLIGHLPKLKSTLKVLGDYIKGIKTSKHMETEALSTFTNISVGSQVVGMATRGITNMQMMSSQTVDLKIVKELKAVIDEEMKKHQLNPSDVKNLNSLDGLEDELNRIKTAISDFKKSVKPVKSFKLSNYSGFFQDAKKVPGIKINLPAIIGSVEKLKDRLSTRRRRSASASQLDTLLSLLRSLQIYDSAKFSKAFDDSAKSLQALDTSFTAYSKATSKLQGQKGSQSPRSPGSSPTKELSFLENDGEEFKITHHQVLDWNGLNALEDHRGAGLAAMFLMKYETTAIVHCVDGVSRSAVLAGMIIGFQKIIETRGDMNVADLIDDLRKQRAMAITSGLELAFVDAGIFLLFKRMMNNFEEEYPEDLKQMLKDAVQYYKLIAGYQVQQRDNYFKKLDNMGKKQMNQKKSTEEGVDKSKEQGKDATVMKEKSPLAKVN,not soluble
14,MQNAIKTDASNSTVEARDEEPVAANDNKPASNPGTSVTEDSVAYIFASTYRDTLRFCHSTGAWFEWDGSYWRRNEVGLAAHHVRVMARDMSQGLSPKALATIRKRSFASGVEGFARNDPTFAVTIEAWDRDPFLLGTPDGTVDLRTGKMRAADPADGITKLTSTAPSAQADCPLWLRFLQDATGGDGEMIRFLQQWCGYCLTGDTREHALVFVHGDGGNGKSVFLNTTSYILHDYATTASMDTFVASRSDRHPTDLAMLRGARLVSASETEEGRAWAESRIKQMTGGDAISARFMRQDFFTFQPQFKLFVVGNHQPALHSVDAAARRRFNIVPFTRKPTKPDRELEAKLRGEAPAILRWMVDGCRDWQRNGLVRPASIVEATETYFAEQDTFGQWLKDACRVEPDNRSISDFVADLFKSWTDYAEASGERPGSQKGFVQSLTKSGFKKGQRVRGGQLYIGLQLLRQAEKEPSVRDLEHHHHHH,soluble
15,MQNHVISLASAAERRAHIAATFGVRGIPFQFFDALMPSEELNRMMAELVPGLAKQHLLSEVEKACFMSHAVLWKQALDEGLPYVAVFEDDVLLGKDAEKFLAEDTWLEERFDKDSAFIVRLETMFAKVIVRPDKVLNYENRSFPLLESEHWGTAGYIISREAMRFFLERFAVLPAEWIKAVDWMMFTYFFDKEGMPVYQVNPALCTQELHYAKFLSKNSMLGSDLEKDREQERRHRRSLKVMFDLKRALGKFGREKKKRMERQRQAELEKAYGRRVISFK,not soluble
16,MQNIHKIKQDMCDIGRRIYNRQFAAANDGNITVRVSENEVLCTPTMHCKGYLTPDDISMIDMTGKQIAGRKKRSSEALLHLEIYKQRADIKSVVHCHPPHATAFAIAREPIPQCILPEVEVFLGDVPITKYETPGGQAFADTIIPFVEKTNVMILANHGTVSYGESVERAYWWTEILDSYCRMLLLAKQLGNVSYLDETKSRELLELKDKWGFKDPRNTSEYEDCDICANDIFRDSWKDSGVERRAFAPPPPIKTSGSASSAPAGVDEEQLVKLITNEVMRQMKASS,not soluble
17,MQPKLIILRGNSGSGKTTIANALHQCLKEQSLLISQDVVRREMLRVKDETGNLSIALLKQLVAFGYQECQYVIVEGIFQKAIYHSFFQEIIHLFEGNVQVYYFDISFEETLKRHSQRNKNQEFGVVEMKRWWLPEDYLGFPGEQRLSEQLSEKQIIRQILADIQ,not soluble
18,MQQHEIRRFVERYFAANGCTFVEASDDYLTVQLTAEMDKELMNRPFYWHYIERTGGVPQPMRLTLITRASERTDKLKGERLHFGAPRLHQLFRSAQKRGSFIRLYEEPNAPLDGNAALHPWLGMNVTISYECDRKKDEIVSLGLHLISGTIVESFHERMRERRLTPKIPDYCFTISPLIKPRSGIGRLEQYIRSRIAADNHAWADEARRRWADDLALLDEFYKDCEEKPECYYIEKEALEKQYKPRITVSVINGGLFYLLPRSS,not soluble
19,MQRERTAESSLRVISKEKNSITVEMINYDNTLLRTLVEEILKDDQVDEARYYIKHPVIDNPQIYVRVKSGKPQSAIKRAVRKLSKLYEDLGTQFQKEFQRYESDHMIKAVE,soluble
20,MQRIRIIDSHTGGEPTRLVIGGFPDLGQGDMAERRRLLGERHDAWRAACILEPRGSDVLVGALLCAPVDPEACAGVIFFNNSGYLGMCGHGTIGLVASLAHLGRIGPGVHRIETPVGEVEATLHEDGSVSVRNVPAYRYRRQVSVEVPGIGRVSGDIAWGGNWFFLVAGHGQRLAGDNLDALTAYTVAVQQALDDQDIRGEDGGAIDHIELFADDPHADSRNFVLCPGKAYDRSPCGTGTSAKLACLAADGKLLPGQPWRQASVIGSQFEGRYEWLDGQPGGPIVPTIRGRAHVSAEATLLLADDDPFAWGIRR,soluble
